pKd: −log10 of the molar value.
Experiments:
[1] = target: Klebsiella quasipneumoniae Qmp M1-977 TolC (KqTolC), recombinant, C-terminal His6 (Klebsiella quasipneumoniae); experiment: ITC; KlebC constructs in the syringe (76-89 µM), TolC trimer in the cell (5-7.6 µM); 25 mM Tris-HCl pH 7.5, 1% (w/v) β-OG; no feedback mode, 750 s between injections; single set of identical sites
[2] = target: TolC of Klebsiella quasipneumoniae Qmp M1-977, endogenous (Klebsiella quasipneumoniae (endogenous in K. quasipneumoniae Qmp M1-977))
[3] = target: Klebsiella quasipneumoniae Qmp M1-977 TolC (KqTolC), recombinant, C-terminal His6 (Klebsiella quasipneumoniae); experiment: cryo-EM structure; KqTolC-KlebC_(1-254) mixed in β-OG and transferred into amphipol A8-35 without cross-linking; only KqTolC resolved; 3.4 Å
[4] = target: Klebsiella quasipneumoniae Qmp M1-977 TolC (KqTolC), recombinant, C-terminal His6 (Klebsiella quasipneumoniae); experiment: ITC + other: stopped-flow fluorescence; koff not measured (too slow): estimated from the Kd by ITC and the kon by stopped-flow, assuming Kd = koff/kon
[5] = target: Klebsiella quasipneumoniae Qmp M1-977 TolC (KqTolC), recombinant, C-terminal His6 (Klebsiella quasipneumoniae); experiment: stopped-flow fluorescence (pre-equilibrium, tryptophan emission); 0.5 µM KqTolC with excess KlebC_(1-254), pseudo-first-order, 25 °C; kapp from single exponential fits, kon from the gradient of kapp against concentration
[6] = target: Klebsiella quasipneumoniae Qmp M1-977 TolC (KqTolC), recombinant, C-terminal His6 (Klebsiella quasipneumoniae); experiment: equilibrium fluorescence (Trp-to-AEDANS FRET within KlebC); 1 µM Q204C^AEDANS KlebC_(1-254) without and with 1 µM KqTolC trimer; excitation 280 nm, FRET signal at 490 nm, 25 °C
[7] = target: Klebsiella quasipneumoniae Qmp M1-977 TolC (KqTolC), recombinant, C-terminal His6 (Klebsiella quasipneumoniae); experiment: stopped-flow fluorescence (pre-equilibrium, loss of Trp-to-AEDANS FRET); TolC in excess, pseudo-first-order, 25 °C; single exponential fits
[8] = target: Klebsiella quasipneumoniae Qmp M1-977 TolC (KqTolC), recombinant, C-terminal His6 (Klebsiella quasipneumoniae); experiment: stopped-flow fluorescence (pre-equilibrium, loss of Trp-to-AEDANS FRET); Q204C^AEDANS KlebC_(1-254) in excess, pseudo-first-order, 25 °C; single exponential fits

KlebC_(51-254) (domain or fragment)
pKd [1]: 6.43 | dH [1]: 20.8 kcal/mol | stoichiometry N (binding sites per TolC trimer) [1]: 1.34 | growth of K. quasipneumoniae on LB-Agar with 1 mg ml^−1 Rhodamine 6G after serial dilution in 1 or 10 µM KlebC (51-254) [2]: 4 log

Klebsiella quasipneumoniae Qmp M1-977 TolC (KqTolC), recombinant, C-terminal His6 (natural protein)
stoichiometry N [3]: 3

KlebC_(1-254) (domain or fragment)
koff [4]: 5e-05 s⁻¹ | pKd [1]: 7.46 | dH [1]: 30.6 kcal/mol | stoichiometry N (binding sites per TolC trimer) [1]: 0.9 | kon [5]: 1900 M⁻¹ s⁻¹

Q204C^AEDANS KlebC_(1-254) (domain or fragment)
decrease of the Trp-to-AEDANS FRET signal at 490 nm upon addition of equimolar TolC trimer [6]: 77% | kon [7]: 6700 M⁻¹ s⁻¹ | kon [8]: 2900 M⁻¹ s⁻¹

Source: article PMC8324772
